From patent US20260207767A1

Experiments:
[1] = target: human PD-1 expressed on cells (human) (UniProt Q15116); assay: flow cytometry, CHO-S hPD-1
[2] = target: recombinant hPD-1 (construct not stated) (human) (UniProt Q15116); assay: ELISA
[3] = target: recombinant cynoPD-1 (construct not stated) (cynomolgus monkey) (UniProt B0LAJ3); assay: ELISA
[4] = target: cynomolgus PD-1 expressed on cells (cynomolgus monkey) (UniProt B0LAJ3); assay: flow cytometry, CHO-S Cyno-PD-1
cynomolgus PD-1 expressed on cells (cynomolgus monkey), sequence (B0LAJ3 entry or part of it limits assumed): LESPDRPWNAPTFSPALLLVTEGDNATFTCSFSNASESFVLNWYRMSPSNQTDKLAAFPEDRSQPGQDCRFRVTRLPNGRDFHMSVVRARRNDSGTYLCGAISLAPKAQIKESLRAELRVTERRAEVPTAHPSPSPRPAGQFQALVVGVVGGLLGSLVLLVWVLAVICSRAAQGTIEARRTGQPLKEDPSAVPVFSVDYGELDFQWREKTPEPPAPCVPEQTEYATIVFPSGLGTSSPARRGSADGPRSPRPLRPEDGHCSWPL

recombinant hPD-1 (construct not stated) (human), sequence (Q15116 25-167 limits assumed): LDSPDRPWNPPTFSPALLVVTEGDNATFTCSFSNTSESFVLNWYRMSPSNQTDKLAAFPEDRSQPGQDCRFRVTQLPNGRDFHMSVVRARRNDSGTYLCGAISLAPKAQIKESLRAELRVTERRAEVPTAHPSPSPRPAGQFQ
human PD-1 expressed on cells (human), sequence (Q15116 25-288): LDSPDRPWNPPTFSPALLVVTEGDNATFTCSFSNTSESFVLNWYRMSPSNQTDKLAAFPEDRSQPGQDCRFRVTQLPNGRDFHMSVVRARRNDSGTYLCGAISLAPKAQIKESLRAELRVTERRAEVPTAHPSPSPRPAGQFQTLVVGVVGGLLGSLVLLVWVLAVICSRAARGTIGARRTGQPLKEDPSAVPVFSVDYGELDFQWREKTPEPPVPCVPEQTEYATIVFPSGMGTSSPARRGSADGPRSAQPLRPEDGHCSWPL
recombinant cynoPD-1 (construct not stated) (cynomolgus monkey), sequence (B0LAJ3 entry or part of it limits assumed): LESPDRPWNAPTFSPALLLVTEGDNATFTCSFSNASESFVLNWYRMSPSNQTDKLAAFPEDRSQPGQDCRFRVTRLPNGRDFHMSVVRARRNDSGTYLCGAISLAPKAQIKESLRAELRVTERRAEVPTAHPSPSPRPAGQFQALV

- Max MFI [1]: 184 MFI
- Max OD [2]: 0.05 OD
- Max OD [3]: 0.07 OD
- Max MFI [4]: 206 MFI
Substance: NC.hIgG1 (antibody)
